Test results published in patent US20180291096A1 (Janssen / Centocor, published 2018).
Changes are numbered by the printed parent chain.

T1: recombinant human IL-23 (hrIL-23), produced at Centocor (human, UniProt P29460 23-328)
T1 construct: p19-p40 heterodimer; also called rhIL-23; huIL-23
T1 sequence 1: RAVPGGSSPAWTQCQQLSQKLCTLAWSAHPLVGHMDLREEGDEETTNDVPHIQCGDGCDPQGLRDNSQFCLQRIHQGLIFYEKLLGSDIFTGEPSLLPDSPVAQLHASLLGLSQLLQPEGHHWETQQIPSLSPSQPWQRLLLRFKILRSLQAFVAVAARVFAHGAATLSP
T1 sequence 2: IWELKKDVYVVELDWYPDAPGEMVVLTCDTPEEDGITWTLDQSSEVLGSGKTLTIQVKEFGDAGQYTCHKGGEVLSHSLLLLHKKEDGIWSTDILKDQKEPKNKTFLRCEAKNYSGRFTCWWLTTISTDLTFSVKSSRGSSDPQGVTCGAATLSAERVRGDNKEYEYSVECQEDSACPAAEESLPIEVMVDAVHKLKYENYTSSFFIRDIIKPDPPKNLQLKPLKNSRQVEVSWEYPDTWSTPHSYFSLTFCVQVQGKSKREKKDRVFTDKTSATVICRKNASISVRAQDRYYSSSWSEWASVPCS

B1: MOR05053 Fab (Fab, V domains shown)
VH: QVQLVESGGGLVQPGGSLRLSCAASGFTFSSFGMSWVRQAPGKGLEWVSNIEHKYTSYTTYYAASVKGRFTISRDNSKNTLYLQMNSLRAEDTAVYYCARYWGTPYLMQFDNWGQGTLVTVSS
VL: DIALTQPASVSGSPGQSITISCTGTSSDVGGYNSVSWYQQHPGKAPKLMIYSVSSRPSGVSNRFSGSKSGNTASLTISGLQAEDEADYYCSSYDTNKPLVVFGGGTKLTVL
notes: Fab
B2: MOR05047 Fab (Fab, V domains shown)
VH: B1 VH with T56L, S57G, T59A, Y61S
VL: B1 VL
notes: Fab
B3: MOR05048 Fab (Fab, V domains shown)
VH: B1 VH with Y55F, T56M, S57G, S65G
VL: B1 VL
notes: Fab
B4: MOR05050 Fab (Fab, V domains shown)
VH: B1 VH with N50S, S57G, S65P
VL: B1 VL
notes: Fab
B5: MOR05039 Fab (Fab, V domains shown)
VH: B1 VH with T56L, S57N, T59A
VL: B1 VL
notes: Fab
B6: MOR05028 mAb (antibody, human IgG1, V domains shown)
VH: QVELVQSGAEVKKPGSSVKVSCKASGGTFSNYAISWVRQAPGQGLEWMGGIIPVFGFTHYAQKFQGRVTITADESTSTAYMELSSLRSEDTAVYYCARDIYAGMDVWGQGTLVTVSS
VL: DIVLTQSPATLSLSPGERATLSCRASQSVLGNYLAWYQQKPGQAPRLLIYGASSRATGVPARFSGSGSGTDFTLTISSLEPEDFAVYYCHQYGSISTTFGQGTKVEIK
B7: MOR05056 mAb (antibody, human IgG1, V domains shown)
VH: B1 VH with Q3E, N50S, T56L, T59A, S65G
VL: B1 VL
B8: MOR05061 mAb (antibody, human IgG1, V domains shown)
VH: QVELVESGGGLVQPGGSLRLSCAASGFTFSSFGMSWVRQAPGKGLEWVSNISSSGSSTYYADSVKGRFTISRDNSKNTLYLQMNSLRAEDTAVYYCARYWGTPYLMQFDNWGQGTLVTVSS
VL: B1 VL with D94Y, T95F, N96Y, K97L, P98Q, L99R, V100I
B9: MOR05063 mAb (antibody, human IgG1, V domains shown)
VH: B8 VH
VL: B1 VL with S91G, Y93W, T95P, N96I, K97F, P98S, L99Y, V100E
B10: MOR05039 mAb (antibody, human IgG1, V domains shown)
VH: B1 VH with Q3E, T56L, S57N, T59A
VL: B1 VL
B11: MOR05062 mAb (antibody, human IgG1, V domains shown)
VH: B8 VH
VL: B1 VL with S91Q, S92T, D94Y, T95F, N96S, K97Y, P98S, L99G, V100P
B12: MOR04658 mAb (antibody, human IgG1, V domains shown)
VH: B8 VH
VL: B1 VL
B13: MOR05031 mAb (antibody, human IgG1, V domains shown)
VH: QVELVQSGAEVKKPGSSVKVSCKASGGTFSSNYISWVRQAPGQGLEWMGGIIPIFGHANYAQKFQGRVTITADESTSTAYMELSSLRSEDTAVYYCARSKKGMYGGWTYPLMMFDLWGQGTLVTVSS
VL: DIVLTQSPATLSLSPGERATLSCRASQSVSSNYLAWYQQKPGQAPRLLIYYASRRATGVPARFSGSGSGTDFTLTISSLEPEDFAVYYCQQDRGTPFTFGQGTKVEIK
B14: MOR05032 mAb (antibody, human IgG1, V domains shown)
VH: B13 VH
VL: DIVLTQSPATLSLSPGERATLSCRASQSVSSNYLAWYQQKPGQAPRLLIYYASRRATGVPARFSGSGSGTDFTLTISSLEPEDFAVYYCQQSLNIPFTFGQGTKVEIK
B15: MOR05033 mAb (antibody, human IgG1, V domains shown)
VH: B13 VH with G50I, I54P, F55I, H57N, N59W
VL: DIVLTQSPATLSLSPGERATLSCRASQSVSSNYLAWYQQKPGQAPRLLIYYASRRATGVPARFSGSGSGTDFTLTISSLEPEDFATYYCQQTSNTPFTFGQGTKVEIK
B16: MOR05037 mAb (antibody, human IgG1, V domains shown)
VH: B13 VH with G50L, I52D, I54M, H57G, N59Y
VL: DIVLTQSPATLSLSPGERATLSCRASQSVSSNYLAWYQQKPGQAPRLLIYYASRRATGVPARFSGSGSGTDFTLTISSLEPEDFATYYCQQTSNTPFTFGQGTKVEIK
B17: MOR05036 mAb (antibody, human IgG1, V domains shown)
VH: B13 VH with G50L, I52D, I54V, H57G, N59Y
VL: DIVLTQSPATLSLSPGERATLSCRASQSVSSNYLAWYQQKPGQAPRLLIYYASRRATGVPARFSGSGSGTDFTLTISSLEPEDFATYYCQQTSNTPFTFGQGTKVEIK
B18: MOR05034 mAb (antibody, human IgG1, V domains shown)
VH: B13 VH with G50L, I52D, I54N, H57G, N59Y
VL: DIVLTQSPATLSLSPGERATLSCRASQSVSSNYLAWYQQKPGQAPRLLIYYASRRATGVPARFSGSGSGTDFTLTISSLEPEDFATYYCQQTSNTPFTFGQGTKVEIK
B19: MOR05041 Fab (Fab, V domains shown)
VH: QVQLVQSGAEVKKPGESLKISCKGSGYSFSNYWIGWVRQMPGKGLEWMGIISPTGSVTWYSPSFQGQVTISADKSISTAYLQWSSLKASDTAMYYCARWYYKPFDVWGQGTLVTVSS
VL: DIVLTQPPSVSGAPGQRVTISCTGSSSNIGSGYDVHWYQQLPGTAPKLLIYGNSKRPSGVPDRFSGSKSGTSASLAITGLQSEDEADYYCSSWTPSSVVFGGGTKLTVL
notes: Fab
B20: MOR05059 Fab (Fab, V domains shown)
VH: B19 VH with S52D, T54S, G55N, V57Y, W59N
VL: DIVLTQPPSVSGAPGQRVTISCTGSSSNIGSGYDVHWYQQLPGTAPKLLIYGNSKRPSGVPDRFSGSKSGTSASLAITGLQSEDEADYYCASWTDGLSLVVFGGGTKLTVL
notes: Fab
B21: MOR05058 Fab (Fab, V domains shown)
VH: B19 VH with S52D, T54S, G55N, V57Y, W59N
VL: B20 VL with A91S, G96T, L97P, S98N, L99M, V100I
notes: Fab
B22: MOR05044 Fab (Fab, V domains shown)
VH: B19 VH with T54S, V57T
VL: B19 VL
notes: Fab
B23: MOR05043 Fab (Fab, V domains shown)
VH: B19 VH with I50F, T54D, V57H
VL: B19 VL
notes: Fab
B24: MOR05046 Fab (Fab, V domains shown)
VH: B19 VH with S52D, T54V, G55S, V57W, W59K
VL: B19 VL
notes: Fab
B25: MOR05268 Fab (Fab, V domains shown)
VH: B6 VH with E3Q, V54M, F57Y, T58A, H59N
VL: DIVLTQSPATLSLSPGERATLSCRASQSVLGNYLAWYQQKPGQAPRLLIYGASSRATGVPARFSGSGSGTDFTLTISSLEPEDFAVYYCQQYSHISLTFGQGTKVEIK
notes: Fab
B26: MOR05269 Fab (Fab, V domains shown)
VH: B6 VH with E3Q, V54M, F57Y, T58A, H59N
VL: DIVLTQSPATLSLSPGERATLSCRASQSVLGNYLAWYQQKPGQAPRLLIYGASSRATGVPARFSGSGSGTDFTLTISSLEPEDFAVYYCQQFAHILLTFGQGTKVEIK
notes: Fab
B27: MOR05267 Fab (Fab, V domains shown)
VH: B6 VH with E3Q, V54M, F57Y, T58A, H59N
VL: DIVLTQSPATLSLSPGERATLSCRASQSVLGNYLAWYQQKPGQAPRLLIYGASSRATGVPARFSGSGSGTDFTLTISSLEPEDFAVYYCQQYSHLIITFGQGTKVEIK
notes: Fab
B28: MOR05034 Fab (Fab, V domains shown)
VH: B13 VH with E3Q, G50L, I52D, I54N, H57G, N59Y
VL: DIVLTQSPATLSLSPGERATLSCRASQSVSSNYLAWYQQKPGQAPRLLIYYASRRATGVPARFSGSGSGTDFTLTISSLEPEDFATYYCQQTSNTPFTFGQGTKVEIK
notes: Fab
B29: MOR05036 Fab (Fab, V domains shown)
VH: B13 VH with E3Q, G50L, I52D, I54V, H57G, N59Y
VL: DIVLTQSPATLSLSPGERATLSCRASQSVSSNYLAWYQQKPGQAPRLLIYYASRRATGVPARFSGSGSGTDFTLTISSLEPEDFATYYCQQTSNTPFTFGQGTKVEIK
notes: Fab

biological target: T1, recombinant human IL-23 (hrIL-23), …; assay: IL-23/IL-23R competition assay

| IC50 [nM] | Binder |
| --- | --- |
| 0.98 | B1 |
| 0.13 | B2 |
| 0.1 | B3 |
| 0.89 | B4 |
| 0.1 | B5 |

biological target: T1, recombinant human IL-23 (hrIL-23), …; assay: cell-based or functional assay

| IC50, inhibition of IL-17 production [µg/mL] | Binder |
| --- | --- |
| 0.104 | B6 |
| 0.092 | B7 |
| 0.309 | B8 |
| 0.198 | B9 |
| 0.161 | B10 |
| 0.199 | B11 |
| 1.96 | B12 |
| 0.215 | B13 |
| 0.172 | B14 |
| 0.283 | B15 |
| 0.336 | B16 |
| 0.17 | B17 |
| 0.185 | B18 |

biological target: T1, recombinant human IL-23 (hrIL-23), …; assay: IL-23/IL-23R competition assay; remark: another data set of the same source

| IC50 [nM] | Binder |
| --- | --- |
| 0.07 | B19 |
| 0.69 | B20 |
| 0.11 | B21 |
| 0.05 | B22 |
| 0.05 | B23 |
| 0.08 | B24 |
| 0.15 | B25 |
| 0.2 | B26 |
| 0.14 | B27 |
| 0.4 | B28 |
| 0.32 | B29 |

biological target: T1, recombinant human IL-23 (hrIL-23), …; assay: SET

| Kd [nM] | Binder |
| --- | --- |
| 0.041 | B19 |
| 0.093 | B20 |
| 0.033 | B21 |
| 0.043 | B22 |
| 0.018 | B23 |
| 0.023 | B24 |
| 0.66 | B25 |
| 0.96 | B26 |
| 2 | B27 |
| 0.126 | B28 |
| 0.032 | B29 |

biological target: T1, recombinant human IL-23 (hrIL-23), …; assay: SET; remark: another data set of the same source

| Kd [nM] | Binder |
| --- | --- |
| 0.027 | B1 |
| 0.036 | B2 |
| 0.02 | B3 |
| 0.023 | B4 |
| 0.027 | B5 |
